# Assay: yeast display, Sf9 membrane polyspecificity reagent, FACS + sequencing; frameworks hold sequencing errors
# Outline: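 Using colony PCR, genes from sorted yeast display clones were amplified, then sequenced on MiSeq at 2 × 250 and filtered by CDR length. The clones had been stained with 10% biotinylated, detergent-solubilized Sf9 membrane reagent for 1 hour at 4 °C and sorted by FACS into low and high (top ~1%) gates on anti-HA and streptavidin fluorescence. Polyreactivity labels come from the gate of origin.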
row,Sequence,polyreactivity (PSR sort gate)
1,QVQLVESGGGLVQAGGSLRLSCAASGSTFTTNAMGWYRQAPGKERELVATISRGGSTYYADSVKGRFTISRDNAKNTVYIQMNRLKPEDTAVYYCATDVQVPGIGRSVYAYEYWGQVTQVTVSS,low polyreactivity
2,QVQLVESGGGLVQAGGSLRLSCAASGIIFDGYAMGWYRQAPGKEREFVAAITSGGGSTSYADSVKGRFTISRDNAKNTVYLQMNSLKPEDTAVYSCAARSNRFYVRQRYGYWGQGTQVTVSS,high polyreactivity
3,QVQLVESGGGLVQAGGSLRLSCAASGRTFGGNTMGWSRQAPGKERELVAAISSGGSTYYADSVKGRFTISRDNAKNTVYLQMNSLKPEDTAVYYCAKSDPVGYYWDDPVTFDYWGQGTQVTVSS,low polyreactivity
4,QVQLVESGGGLVQAGGSLRLSCAASGFTFFIYAMGWYSQAPGKEREFVAAITGSGGSTYYADSVKGRFTISRDNAKNTVYLQMNSLKPEDTAVYYCNTAGYDYYSTQAYDYWGQGTQVTVSS,high polyreactivity
5,QVQLVESGGGLVQAGGSLRLSCAASGSIFRGYTMGWYRQAPGKERELVAAISRSGGSTYYADSVKGRFTISRDNAKNTVYIQMNSLKPEDTAVYYCNVVYFVTTSPGYDYWGQGTQVTVSS,high polyreactivity
6,QVQLVESGGGLVQAGGSLRLSCAASGRIFDSNAMGWYRQAPGKERELVAAITYSGGGTFYADSVKGRFTISRDNAKNTVYLQMNRLKPEDTAVYYCNAGYFTEYNSWGQGTQVTVSS,high polyreactivity
7,QDQLVESGGGLVQAGVSLRLSCAASGIISSDNAMGWYRQAPGKERELVAAITVSGGSTYYADSVKRRFTISRDNAKNTVYFQMNSLKPEDTAVYYCAADYSLEYGFDYWGQGTQVSVSS,low polyreactivity
8,QVQLVESGGGLVQAGGSLRLSCAASVLIIWLYTMGWYRQAPGKERELVAAIDWSGGSTYYADSVKGRFTMSRDIAKNTVYLQMNRLKPEDTAVYYCAADPEPSYRFDYGGQGTQVTVSS,low polyreactivity
9,QVQLVESAGGLVQAGASLRLSCAASGSTFYYYAMGWYRQAPGKERELVAAIDWDSGSTYYADSVKGRFTISRDNAKNTVFLQMNSLNPEDTAVYYCAADSWFSDFDYWGQGTQETVSS,high polyreactivity
10,QVQLVESGGGLVQAGGSLRLSCAASGSTINYYAMGWYIQAPGKERELVARITWSGARTYYADSVKGRFTISRDNAKNTVYLQMNSLKPEDTAVYYCAAGYLALESPWYYRWYDYWGQGTQVTVSS,low polyreactivity
11,QDQLVESGGGLVQAGGSLRLSCAASGRTFDSYAMGWYRQAPGKERELVAAIDADSVKGRFTISRDNAKNTVYLQMNSLKPEVTAVYYCAKPSRWGWTGFYAYEYWGQGTQVTVSS,low polyreactivity
12,QVQLVESGGGLVQAGGSLRFSCPASGSIFPAYARGWYRQAPGKERELVAAITRGGSTDYADSVKGRFTISRDNAKNTVYLQMNSLKPEDTAVYYCAKRGYYYYHYVSGKPEDYWGQGTQVTVSS,low polyreactivity
13,QVQLVESGGGLVQAGGSLRLSCAASGFIFSCYAMGWDRQAPGKERELVAAISWSGGSTYYADSVKGRFTISRDNAKNTVYLQMNSLKPEDTAVYYCAADRGYRRLFLNNVDYWGQGTQVTVSS,high polyreactivity
14,QVQLVESGGGLVQAGGSLRLSCAASGFILYFNAMGWYRQAPGKERELVAVISGTGVRTNYADSVKGRFTISRDNAKNTVYLQMYSLKPEDTAVYYCAAGYYSYRPRDYWGQGTQVTVSS,low polyreactivity
15,QVQLVESGVGLVQAGGSLRLSCAASGITFTSYAMGWYRQAPVKERELVAAISSSGVRTYYADSVKGRFTISRDNSKNTVYLQMNSLKPEDTAVYYCATRRRVLYGYDYWGQGTQVTVSS,high polyreactivity
16,QVQLVESGGGLVQAGGSLRLSCSASGSTFHRYAMGWYIQAPGKERELVARINGSGGSTYYADSVKGRFTISRDNAKNTVYLQMNSLKPEDSAVYYCAADGLYYTYGYDYWGQGTQVTVSS,low polyreactivity

row,Sequence,polyreactivity (PSR sort gate)
1,QVQLVESGGGLVQAGGSLRLSCAASGRTFYSNAMGWYRQAPGKERELVAAITFGGGSTYYADSVKGRFTISRDNAKNTVYLQMNSLKPEDTAVYYCAAEGYKYRFYYWGQGTQVTVSS,low polyreactivity
2,QVQHVESGGGLVQAGGSLRLSCAASGIIFGHYDMGWYRQAPGKERELVAAITFTGDSTYYADSVKGRFTISRDNAKITVYLQMNSLKPEDTAVYFCAADTPVPWGSWGYDYWGQGTQVTVSS,low polyreactivity
3,QVQLVESGGGLVQAGGSLRLSCAASGSTFNLYAIGWYRQAPGKEREFVAAIRGRGGNTYADSVKRRFTISRDNAKNTVYLQMNSLKPEDTAVYYCAAPLLRDLRSPYSYKYWGQGTQVTVSS,low polyreactivity
4,QVQLVESGGGLVQAGGSLRLSCAASGSIFYPYAMGWYRQAPGKERELVARIRGTGGRTYYADSVKGRFTISRDNAKNTVYLQMNSLKPEDTAVYYCNAQTSGRVGSQYYSYYGSWGQGTQLTVSS,high polyreactivity
5,QVQLVESGGGLVQAGGTLRLSCAASGRIFSYNAMGWYRQAPGKERELVAAITWRGGNTYYADSVKGRFTISRDNALNTVYLQMNSLQPEDTAVYYCAAQRGRWAPMYFWGQGTQVTVSS,high polyreactivity
6,QVQLVESGGGLVQAGGSLRLSCAASGRTFRRYAMGWYRQAPGKERELVAAIRSDGSTYYADSVKGRFTISRDNAKNTVYLQMNSLKPEDTAVYYCAKVLDQRRRYDYWGQGTQVTVSS,low polyreactivity
7,QVQLVESGGGLVQAGGSLRLSCAASGSTFNGNDMGWYRQAPGKERELVATISDGGRTYYADSVKGRFTISRDNAKNTVYLQRNSLKPEDTAVYYCAAPVYVPRAWFYYWGQGTQVTVSS,low polyreactivity
8,QVQLEESGGGLVQAGGRLRLSCAASGSNTRTYAMGWYRQAHGKERELVAAISSSVCRTYYADSVKGRFTISRDNEKNTVYLQMNSLKPEDTAVYYCNSRTYSYRGYNYWGQGTQVTVSS,high polyreactivity
9,QVQLVESGGGLVQTGGSLRISCAASGSTFYYYAIGWYRQAAGKERELVAGISWGGGSTYYEDSVKGRFTISRDNAKNTVYLQMNSLKPEDTAVYYCNALNPKSYDYWGHGTQVTVSS,low polyreactivity
10,QVQLVESGGGLVQAGGSLRLSCAASGRIFRIYTMGWYREAPGKERELVAAISKSGGGTYYADSVKGRFTISRDNAKNTVYLQMNSLKPEDTAVYYCAAVSPNTAYDYWGQGTQVTVSS,high polyreactivity
11,QVQLEESGGGLVQAGGSLRLSCAASGFTLPANGMGWYRQAPGKERELVAAISFIAGSTYYADSVKGRFTISRDNAKNTVYLQMNSLKPEDTAVYYCSTQFPPSTIYDYWGQGTQVTVSS,low polyreactivity
12,QVQLVESGGGLVQAGGSLRLSCAASGRIFRYYAMGWYRQAPGKERELVASITSGARTSYADSVKGRFTISRDNAKNTVYLQMNSLKPEDTAVYYCAPGYSYSPGRMGYWGQGTQVTVSS,high polyreactivity
13,QVKLVESGGGLVQAGGSLRLSCPASGRIFYTNARGWSRQQPGQESEFVAAISYSGGTTYYADSVKGRFTISRDNAKNNVYLQMNSLKPEDTAVYYCARRYRSYYYRSKMDYWGQGTQVTVSS,high polyreactivity
14,QVQLVESGGGLVQAGGSLRLSCAASGQTFRRYDMGWYRQAPGKEREFVAAITWSTGSTYYADSVKGRFTISRDYAKNTVYLQMNSLKPEDTAGYYCAARSGYFYRYYKYDYWGQGTQVTVSS,high polyreactivity
15,QVQLVESGGGLVQAGGSLRLSCAASGSIFAYYTMGWYRQAAGNERELVAVINASGGGTYYADSVKGRFTISRDNAKNTVYLQMNSLKPEDTAVYYCAATYSPFDFYYWGQGTQVTVSS,low polyreactivity
16,QVQLVESGGGLVQAGGSFRLSCAASGGTFDTYVMGWYRQAPGKERELVAVITRGASTYYADSVKGRFTISRDNAKNTVYLQMNSLKPEDTAVYYCAAAVYSPDYYRFWYSFDYWGQGTQVTVTS,low polyreactivity

# — the nanobody polyreactivity screen of Harvey et al. (2022)
